Target: the molecule itself
Test: crystal structure

B1: Methylated MxiAC (318-686) (domain or fragment, Shigella flexneri, UniProt P0A1I5 318-686, looked up)
chain: VVEKEKSLSESDSSGYTGTFDIDNSHDSSLAMIENLDAISSETVPLILLFAENKINANDMEGLIERIRSQFFIDYGVRLPTILYRTSNELKVDDIVLLINEVRADSFNIYFDKVCITDENGDIDALGIPVVSTSYNERVISWVDVSYTENLTNIDAKIKSAQDEFYHQLSQALLNNINEIFGIQETKNMLDQFENRYPDLLKEVFRHVTIQRISEVLQRLLGENISVRNLKLIMESLALWAPREKDVITLVEHVRASLSRYICSKIAVSGEIKVVMLSGYIEDAIRKGIRQTSGGSFLNMDIEVSDEVMETLAHALRELRNAKKNFVLLVSVDIRRFVKRLIDNRFKSILVISYAEIDEAYTINVLKTI
modifications: reductive methylated by dimethylamine borane complex (DMAB) and formaldehyde
- stoichiometry N: 9

— paper PMC3537844 (Nature structural & molecular biology, 2012)
